This note sets out measurements from patent publication US20230340151A1 (Pfizer, published 2023).

Usually Kd stands for the concentration at which binding is half-saturated. As usually defined, the EC50 is the concentration giving half of the maximal effect. A higher EC50 goes with lower potency in that assay.

One test has as its target T1, Human CD3 epsilon-delta (human).
T1 construct: Single-chain epsilon-linker-delta with His6; also called huCD3
T1 chain: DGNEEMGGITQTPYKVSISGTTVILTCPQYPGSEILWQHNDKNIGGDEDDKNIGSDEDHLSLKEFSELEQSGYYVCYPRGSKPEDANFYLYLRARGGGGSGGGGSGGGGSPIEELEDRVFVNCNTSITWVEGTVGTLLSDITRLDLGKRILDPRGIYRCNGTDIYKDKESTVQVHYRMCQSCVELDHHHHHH
The experiment in a line: SPR, recombinant human CD3. (Surface plasmon resonance follows binding to a sensor surface in real time, without labels.)

The target in test [1] is Human CD3 on naive human T cells (human, UniProt P07766 23-207). The experiment in a line: cell-based or functional assay.
The target of another test is T2, Human GUCY2C ECD-muIgG2a (human).
T2 construct: also called human GUCY2c ECD-mouse IgG2a Fc fusion protein; huGUCY2c-mIgG2a
The experiment in a line: huCD3-huGUCY2C sandwich ELISA (CD3 coated). (In an ELISA, binding on a coated surface is turned into a signal by an enzyme label.)

T2 sequence (chain, as listed by the source limits assumed): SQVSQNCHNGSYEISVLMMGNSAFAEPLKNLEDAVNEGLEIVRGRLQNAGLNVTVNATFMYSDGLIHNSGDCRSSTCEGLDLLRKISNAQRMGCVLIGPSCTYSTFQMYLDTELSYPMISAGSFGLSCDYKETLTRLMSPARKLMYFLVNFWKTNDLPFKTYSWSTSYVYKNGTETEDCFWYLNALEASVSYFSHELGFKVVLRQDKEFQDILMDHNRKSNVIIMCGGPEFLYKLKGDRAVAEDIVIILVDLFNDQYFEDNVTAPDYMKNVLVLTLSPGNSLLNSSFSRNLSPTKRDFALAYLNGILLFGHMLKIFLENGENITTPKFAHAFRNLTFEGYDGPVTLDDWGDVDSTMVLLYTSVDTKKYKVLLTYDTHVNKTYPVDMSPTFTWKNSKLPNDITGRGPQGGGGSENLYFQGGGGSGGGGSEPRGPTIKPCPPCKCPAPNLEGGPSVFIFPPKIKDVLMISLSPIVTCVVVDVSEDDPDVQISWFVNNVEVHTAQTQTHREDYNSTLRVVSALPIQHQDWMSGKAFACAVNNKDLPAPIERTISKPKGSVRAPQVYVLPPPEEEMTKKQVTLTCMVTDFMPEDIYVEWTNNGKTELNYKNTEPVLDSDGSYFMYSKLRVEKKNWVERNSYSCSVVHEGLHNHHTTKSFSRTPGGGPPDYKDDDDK
Procedure for Human GUCY2C ECD-muIgG2a: To test bispecific binding to both GUCY2c and CD3, a sandwich ELISA was performed. […] Plates were washed 3× with PBS+0.05% TWEEN20 and blocked with PBS+3% milk for 1 hr, shaking at RT. Blocking solution was removed and samples serially diluted in block were added and incubated for 1 hr shaking at RT. Plates were washed 3x as before and purified human, cynomolgus or murine GUCY2c ECD-mouse IgG2a Fc fusion protein was added to the plate at 1 μg/ml and incubated at RT, shaking for 1 hr. Plates were washed 3× as before and a secondary antibody was added (goat anti-mouse IgG Fc-HRP—Thermo Scientific, diluted 1:4,000), followed by shaking for 1 hr at RT. Plates were washed as before and signal was developed using TMB, the reaction stopped with H2SO4 and the absorbance read at 450 nm on an EnVision® plate reader (Perkin Elmer). An alternative detection method was also periodically employed in place of TMB/H2SO4.

B1: GUCY2C-1679 (bispecific antibody)
chain 1: DIQLTQSPSSLSASVGDRVTITCRASESVDYYGSSLLQWYQQKPGKAPKLLIYAASKLASGVPSRFSGSGSGTDFTLTISSLQPEDFATYYCQQTRKAYTFGQGTKLEIKGGGSGGGGEVQLVESGGGLVQPGGSLRLSCAASGFTFSDYYMTWVRQAPGKGLEWVAFIRNQARGYTSDHNPSVKGRFTISRDNAKNSLYLQMNSLRAEDTAVYYCARDRPSYYVLDYWGQGTTVTVSSGCPPCPAPEAAGAPSVFLFPPKPKDTLMISRTPEVTCVVVDVSHEDPEVKFNWYVDGVEVHNAKTKPREEQYNSTYRVVSVLTVLHQDWLNGKEYKCKVSNKALPAPIEKTISKAKGQPREPQVCTLPPSREEMTKNQVSLWCLVKGFYPSDIAVEWESNGQPENNYKTTPPVLDSDGSFFLYSKLTVDKSRWQQGNVFSCSVMHEALHNHYTQKSLSLSPG
chain 2: DIQMTQSPSSLSASVGDRVTITCTSSQSLFNVRSGKNYLAWYQQKPGKAPKLLIYWASDRESGVPSRFSGSGSGTDFTLTISSLQPEDFATYYCKQSYDLFTFGGGTKVEIKGGGGSGGGGEVQLVESGGGLVQPGGSLRLSCAASGFTFSSYWMHWVRQAPGKGLEWIGEIKPSNELTNVHEKFKDRFTISVDKAKNSAYLQMNSLRAEDTAVYYCTRTITTTEGYWFFDVWGQGTLVTVSSGCPPCPAPEAAGAPSVFLFPPKPKDTLMISRTPEVTCVVVDVSHEDPEVKFNWYVDGVEVHNAKTKPREEQYNSTYRVVSVLTVLHQDWLNGKEYKCKVSNKALPAPIEKTISKAKGQPREPQVYTLPPCREEMTKNQVSLSCAVKGFYPSDIAVEWESNGQPENNYKTTPPVLDSDGSFFLVSKLTVDKSRWQQGNVFSCSVMHEALHNHYTQKSLSLSPG
Turning to B1, the dissociation constant (Kd) with Human CD3 epsilon-delta worked out at 72 nM. The “In vitro Cytotoxicity (nM), T-cell retargeting assay” value (from here on “In vitro Cytotoxicity (nM)”) in test [1] worked out at 0.194 nM.

B2: GUCY2C-0250 (bispecific antibody)
chain 1: DIQLTQSPSSLSASVGDRVTITCRASESVDYYGTSLMQWYQQKPGKAPKLLIYAASNVESGVPSRFSGSGSGTDFTLTISSLQPEDFATYYCQQTRKVYTFGQGTKLEIKGGGSGGGGEVQLVESGGGLVQPGGSLRLSCAASGFTFSDYYMTWVRQAPGKGLEWVAFIRNRARGYTSDHNPSVKGRFTISRDNAKNSLYLQMNSLRAEDTAVYYCARDRPSYYVLDYWGQGTTVTVSSGCPPCPAPEAAGAPSVFLFPPKPKDTLMISRTPEVTCVVVDVSHEDPEVKFNWYVDGVEVHNAKTKPREEQYNSTYRVVSVLTVLHQDWLNGKEYKCKVSNKALPAPIEKTISKAKGQPREPQVCTLPPSREEMTKNQVSLWCLVKGFYPSDIAVEWESNGQPENNYKTTPPVLDSDGSFFLYSKLTVDKSRWQQGNVFSCSVMHEALHNHYTQKSLSLSPG
chain 2: DIQMTQSPSSLSASVGDRVTITCTSSQSLFNVRSRKNYLAWYQQKPGKAPKLLIYWASTRESGVPSRFSGSGSGTDFTLTISSLQPEDFATYYCKQSYDLFTFGGGTKVEIKGGGSGGGGEVQLVESGGGLVQPGGSLRLSCAASGYTFTSYWMHWVRQAPGKGLEWIGEIKPSNGLTNYIEKFKNRFTISVDKAKNSAYLQMNSLRAEDTAVYYCTRTITTTEGYWFFDVWGQGTLVTVSSGCPPCPAPEAAGAPSVFLFPPKPKDTLMISRTPEVTCVVVDVSHEDPEVKFNWYVDGVEVHNAKTKPREEQYNSTYRVVSVLTVLHQDWLNGKEYKCKVSNKALPAPIEKTISKAKGQPREPQVYTLPPCREEMTKNQVSLSCAVKGFYPSDIAVEWESNGQPENNYKTTPPVLDSDGSFFLVSKLTVDKSRWQQGNVFSCSVMHEALHNHYTQKSLSLSPG
For the molecule B2, the concentration giving a half-maximal response (EC50) in the test with Human GUCY2C ECD-muIgG2a came to 76.9 nM. This lies in the double-digit nanomolar range.

B3: GUCY2C-1678 (bispecific antibody)
chain 1: DIQLTQSPSSLSASVGDRVTITCRASESVDYYGSSLLQWYQQKPGKAPKLLIYAASKLASGVPSRFSGSGSGTDFTLTISSLQPEDFATYYCQQTRKAYTFGQGTKLEIKGGGSGGGGEVQLVESGGGLVQPGGSLRLSCAASGFTFSDYYMTWVRQAPGKGLEWVAFIRNQARGYTSDHNPSVKGRFTISRDNAKNSLYLQMNSLRAEDTAVYYCARDRPSYYVLDYWGQGTTVTVSSGCPPCPAPEAAGAPSVFLFPPKPKDTLMISRTPEVTCVVVDVSHEDPEVKFNWYVDGVEVHNAKTKPREEQYNSTYRVVSVLTVLHQDWLNGKEYKCKVSNKALPAPIEKTISKAKGQPREPQVCTLPPSREEMTKNQVSLWCLVKGFYPSDIAVEWESNGQPENNYKTTPPVLDSDGSFFLYSKLTVDKSRWQQGNVFSCSVMHEALHNHYTQKSLSLSPG
chain 2: DIQMTQSPSSLSASVGDRVTITCTSDQSLFNVRSGKNYLAWYQQKPGKAPKLLIYWASDRESGVPSRFSGSGSGTDFTLTISSLQPEDFATYYCKQSYDLFTFGGGTKVEIKGGGGSGGGGEVQLVESGGGLVQPGGSLRLSCAASGFTFSSYWMHWVRQAPGKGLEWIGEIKPSNELTNVHEKFKDRFTISVDKAKNSAYLQMNSLRAEDTAVYYCTRTITTTEGYWFFDVWGQGTLVTVSSGCPPCPAPEAAGAPSVFLFPPKPKDTLMISRTPEVTCVVVDVSHEDPEVKFNWYVDGVEVHNAKTKPREEQYNSTYRVVSVLTVLHQDWLNGKEYKCKVSNKALPAPIEKTISKAKGQPREPQVYTLPPCREEMTKNQVSLSCAVKGFYPSDIAVEWESNGQPENNYKTTPPVLDSDGSFFLVSKLTVDKSRWQQGNVFSCSVMHEALHNHYTQKSLSLSPG
As to B3, the Kd with Human CD3 epsilon-delta came to 63.5 nM. Besides, in test [1], the “In vitro Cytotoxicity (nM)” value stood at 0.247 nM.

B4: GUCY2C-1680 (bispecific antibody)
chain 1: DIQLTQSPSSLSASVGDRVTITCRASESVDYYGSSLLQWYQQKPGKAPKLLIYAASKLASGVPSRFSGSGSGTDFTLTISSLQPEDFATYYCQQTRKAYTFGQGTKLEIKGGGSGGGGEVQLVESGGGLVQPGGSLRLSCAASGFTFSDYYMTWVRQAPGKGLEWVAFIRNQARGYTSDHNPSVKGRFTISRDNAKNSLYLQMNSLRAEDTAVYYCARDRPSYYVLDYWGQGTTVTVSSGCPPCPAPEAAGAPSVFLFPPKPKDTLMISRTPEVTCVVVDVSHEDPEVKFNWYVDGVEVHNAKTKPREEQYNSTYRVVSVLTVLHQDWLNGKEYKCKVSNKALPAPIEKTISKAKGQPREPQVCTLPPSREEMTKNQVSLWCLVKGFYPSDIAVEWESNGQPENNYKTTPPVLDSDGSFFLYSKLTVDKSRWQQGNVFSCSVMHEALHNHYTQKSLSLSPG
chain 2: DIQMTQSPSSLSASVGDRVTITCTSSESLFNVRSGKNYLAWYQQKPGKAPKLLIYWASDRESGVPSRFSGSGSGTDFTLTISSLQPEDFATYYCKQSYDLFTFGGGTKVEIKGGGGSGGGGEVQLVESGGGLVQPGGSLRLSCAASGFTFSSYWMHWVRQAPGKGLEWIGEIKPSNELTNVHEKFKDRFTISVDKAKNSAYLQMNSLRAEDTAVYYCTRTITTTEGYWFFDVWGQGTLVTVSSGCPPCPAPEAAGAPSVFLFPPKPKDTLMISRTPEVTCVVVDVSHEDPEVKFNWYVDGVEVHNAKTKPREEQYNSTYRVVSVLTVLHQDWLNGKEYKCKVSNKALPAPIEKTISKAKGQPREPQVYTLPPCREEMTKNQVSLSCAVKGFYPSDIAVEWESNGQPENNYKTTPPVLDSDGSFFLVSKLTVDKSRWQQGNVFSCSVMHEALHNHYTQKSLSLSPG
Regarding B4, the Kd with Human CD3 epsilon-delta came out at 78.6 nM. In test [1], the “In vitro Cytotoxicity (nM)” value is 0.385 nM.
